From paper PMC12661054, “The CIP2A-TOPBP1 axis facilitates mitotic DNA repair via MiDAS and MMEJ” (Nature Communications, 2025)
Square brackets hold non-standard residues; d marks the D form. Ends that are not written are not given here. fluorescein = fluorescein label on the N-terminus; pT = C[C@@H](OP(=O)(O)O)[C@H](N)C(=O)O

Target: T1, GST-TOPBP1(BRCT0-2 1-290) WT (human, UniProt Q92547 1-290)
T1 construct: TOPBP1, human, residues 1-290 (BRCT0-2); expressed from pGEX-6P-1, eluted with glutathione, no cleavage described; also called TOPBP1 BRCT0-1-2; TOPBP1 BRCT 0-1-2 WT; source: E. coli BL21(DE3), purified (HiTrap GST, Superdex 200)
Assay: fluorescence polarisation; 100 nM fluorescein-labelled SLX4 peptide, increasing concentrations of TOPBP1 BRCT fragment; room temperature; 25 mM HEPES pH 7.5, 150 mM NaCl, 1 mM EDTA, 0.25 mM TCEP, 0.002% Tween 20; single site with non-specific component
Conditions: both partners purified

B1: Flu-SLX4_pT1260 (peptide)
peptide: fluorescein-GYGTSWLVPA[pT]PLASRSR
modifications: also: phosphothreonine at Thr1260 (position 4 or 11)
notes: residues before the SLX4 stretch, not SLX4; SLX4, human, amino acids 1253-1267, pT1260; also called fluorescein tagged SLX4 pT1260-containing peptide; pThr1260 SLX4 peptide; source: synthetic peptide
B1: binds.
